According to patent publication US9060960B2, “Treatment of dissection, aneurysm, and atherosclerosis using granzyme B inhibitors” (The University of British Columbia, priority 2007, dated 2015):
Several values for one entry are separate records, joined by “and”; a condition that tells them apart may be missing. Equal values may be shown once.

What was measured:
[1] = test system: aortic elastin (3H-elastin); assay: 3H-elastin cleavage assay (aortic elastin); assay type: biochemical
Method: (§1) FIG. 6 Granzyme B degrades elastin in vitro. Granzyme B was incubated with ^3H-elastin for 7 days at room temperature. Elastase was incubated with ^3H-elastin for 2 hours. Supernatants containing the soluble elastin cleavage fragments were collected and counted. Data is represented as fold increase in radioactivity over the control (elastin only). (n=2).
(§2) Tritiated elastin was prepared with the modifications as described in Banda, M. J. and Werb, Z. (1981) Biochem, J. 193: 589-605 and Gordon, S., Werb, Z. and Cohn, Z. A. (1976) in In Vitro Methods in Cell Mediated and Tumor Immunity, eds. Bloom, B. R. and David, J. R. (Academic Press, New York), pages 349-350. 1 mg of skin or aortic elastin was diluted in 1 ml dH2O and pHed to 9.2. 1 mCi NaB3H4 (PerkinElmer™, Waltham Mass.) and 2 mg of […] (Sigma™, St. Louis, Mo.) was added. After 2 hours of incubation, the pH was adjusted to 3.0 and the elastin was incubated for an additional 30 minutes. The elastin was centrifuged for 3 minutes at 5000×g and the pellet was repeatedly washed to remove excess NaB3H4. […] The radioactivity of the soluble, cleaved elastin fragments in the supernatant was counted in Ready Safe Scintillation Fluid (Beckman-Coulter™, Fullerton, Calif.). The radioactivity of the cleaved, soluble elastin fragments was 4.8 times and 2.7 times higher than background for skin and aortic elastin, respectively (FIG. 6).

vitronectin = assay: Western blot for vitronectin on granzyme B-treated SMCs; assay type: biochemical, human; conditions: SMCs treated with granzyme B for 24 hours
Method: (§3) Extracellular proteins from SMC cultures were biotinylated and incubated with granzyme B. The supernatant was collected at 2, 4 and 24 hours after treatment, and the entire insoluble extracellular protein preparation collected at 24 hours. Extracellular proteins were visualized by Western blot for biotin. Western blot for beta-actin confirmed that the extracellular protein preparation was devoid of intercellular proteins. Western blots for fibronectin, phosphorylated FAK (p-FAK), and FAK were also performed on lysates of SMC treated with granzyme B. In the collected insoluble proteins, four protein bands between approximately 50-70 kDa and approximately 236 kDa disappeared 24 hours after treatment with granzyme B and cleavage of fragments approximately 25-39 kDa were evident in the matrix at this same time point. Further, the six proteins and/or cleavage fragments ranging in molecular weight from approximately 29-148 kDa were eluted into the supernatant as early as two hours after granzyme B treatment. […]
(§4) To identify extracellular proteins that are cleaved by granzyme B, western blots for fibronectin, collagen, and vitronectin on lysates from untreated and granzyme B-treated SMCs were performed. […] In the supernatants of granzyme B-treated SMCs at 24 hours, a fibronectin cleavage product was detected. […]

collagen IV = assay: Western blot for collagen on granzyme B-treated SMCs; assay type: biochemical, human; conditions: SMCs treated with granzyme B for 24 hours
Method: as §3, §4

[2] = test system: skin elastin (3H-elastin); assay: 3H-elastin cleavage assay (skin elastin); assay type: biochemical
Method: as §1, §2

[3] = test system: human coronary artery smooth muscle cells (SMC) matrix; assay: Cleavage of biotinylated SMC extracellular proteins; assay type: biochemical; conditions: supernatant at 2, 4, 24 hours; insoluble matrix at 24 hours
Method: Extracellular proteins from SMC cultures were biotinylated and incubated with granzyme B. The supernatant was collected at 2, 4 and 24 hours after treatment, and the entire insoluble extracellular protein preparation collected at 24 hours. Extracellular proteins were visualized by Western blot for biotin. Western blot for beta-actin confirmed that the extracellular protein preparation was devoid of intercellular proteins. Western blots for fibronectin, phosphorylated FAK (p-FAK), and FAK were also performed on lysates of SMC treated with granzyme B. In the collected insoluble proteins, four protein bands between approximately 50-70 kDa and approximately 236 kDa disappeared 24 hours after treatment with granzyme B and cleavage of fragments approximately 25-39 kDa were evident in the matrix at this same time point. Further, the six proteins and/or cleavage fragments ranging in molecular weight from approximately 29-148 kDa were eluted into the supernatant as early as two hours after granzyme B treatment. To ensure that the SMC extracellular protein preparations used were devoid of intracellular proteins, Western blotting for beta-actin was performed on the collected supernatant and extracellular proteins. Beta-actin was apparent in SMC lysates (positive control) but was absent from matrix and supernatant preparations.

[4] = test system: human insoluble skin (Sk) elastin; assay: in vitro granzyme B elastin binding assay (skin elastin); conditions: 50, 100, 300 ng granzyme B; 15 μg skin elastin; PBS, 3 hours, room temperature
Method: (§5) An in vitro granzyme B elastin binding assay was conducted in the following manner. Granzyme B at 50, 100 and 300 ng was incubated with 15 μg of human insoluble skin (Sk) and aortic (Ao) elastin (Elastin Products Company™, Owensville, Mo.) in PBS for three hours at room temperature. The samples were centrifuged at 1000×g at room temperature for three minutes and the insoluble elastin collected in the pellet. The supernatants, which contained unbound granzyme B, were denatured with SDS loading buffer and run on a 10% SDS-PAGE gel. Granzyme B was detected by Western blot. Each gel contained three lanes: a first lane related to a sample containing granzyme B in the absence of elastin; a second lane related to the samples containing granzyme B and human insoluble skin elastin; and a third lane related to the sample containing granzyme B and aortic elastin. […] This phenomenon was dose-dependent and not restricted to the type of elastin used (i.e. skin elastin or aortic elastin).

fibronectin = molecular target: T1, fibronectin (Homo sapiens, UniProt P02751); assay: Western blot for fibronectin on granzyme B-treated SMCs; assay type: biochemical; conditions: SMCs treated with granzyme B for 24 hours
T1 construct: endogenous in cells; host or cells: human coronary artery smooth muscle cells
Method: as §3, §4

fibrillin-1 = molecular target: T2, fibrillin-1 (Homo sapiens, UniProt P35555); assay: Fibrillin cleavage on SMC extracellular matrix by Western blot; assay type: biochemical; conditions: Granzyme B (80 nm) on ECM, 24 hours, room temperature
T2 construct: cells were lysed with NH4OH so that the intact extracellular matrix (ECM) remained on the plate; endogenous in cells; host or cells: human coronary artery smooth muscle cells (decellularised ECM)
Method: Human coronary artery smooth muscle cells were cultured to confluency and serum starved for 48 hours at which time cells were lysed with NH4OH so that the intact extracellular matrix (ECM) remained on the plate. Granzyme B (80 nm) was incubated on the ECM for 24 hours at room temperature. Supernatants (containing cleaved ECM) and ECM still attached to the plate were collected and assessed for fibrillin cleavage by Western blot. The arrows in FIG. 7 indicate fibrillin-1 cleavage fragments.

[5] = test system: human insoluble aortic (Ao) elastin; assay: in vitro granzyme B elastin binding assay (aortic elastin); conditions: 50, 100, 300 ng granzyme B; 15 μg aortic elastin; PBS, 3 hours, room temperature
Method: as §5

[6] = test system: apoE-KO and GrB/apoE-DKO mice; assay: ApoE-KO model of angiotensin-II-induced AAA (Examples 8-14); assay type: in vivo, mouse; conditions: for survival to 28 days: chronic angII infusion 1000 ng/min/kg
Excerpt: All animal protocols were approved by the University of British Columbia (UBC) Animal Care Committee. C57B1/6 mice, C57B1/6-ApoE−/− and C57B1/6-GrB−/− mice were obtained from Jackson Laboratories (Bar Harbor, Me.) ([…] et al. 1992. Proc Natl. Acad Sci 89: 4471-4475; HEUSEL et al 1994 Cell 76:977-987). The C57B1/6-ApoE−/− x GrB−/− double knockout (ApoE/GrB-DKO) mice were generated by crossing the C57B1/6-ApoE−/− and C57B1/6-GrB−/− mouse strains. […] The pups were weaned at 3 weeks of age and then maintained on a 12-hour day and night cycle with food and water provided ad libitum.
ALZET™ osmotic pumps (DURECT Corporation, Cupertino, Calif.) are miniature, implantable pumps commonly used for research in mice and rats. These infusion pumps continuously deliver drugs and other test agents at controlled rates from one day to four weeks without the need for external connections or frequent handling. ALZET™ pumps operate by osmotic displacement. An empty reservoir within the core of the pump is filled with the drug solution to be delivered. Due to the presence of a high concentration of salt in a chamber surrounding the reservoir, water enters the pump through its outer surface. This entry of water increases the volume in the salt chamber, causing compression of the flexible reservoir and delivery of the drug solution into the animal.
Mice were weighed immediately before calculating doses, and the mean weight of mice per group was used. Since mice on a regular diet gain 0.5 g of weight per week, the drug dose was calculated based on the projected mid weight of the experiment (so mice were slightly overdosed for the first two weeks and under-dosed for the final two weeks). The dose was calculated based on the pump fill volume, mean pumping rate, and the midpoint weight of the mice to achieve a value of 1.44 mg/kg/day, (equivalent to 1000 ng/min/kg). To ensure accurate filling, pumps were weighed before and after filling, and a value of 1 mg equal to 1 μL was used when assessing fill volume. […] All pumps and solutions were worked with under sterile conditions. […] All test tubes were placed in the incubator at 37° C. for 24 hours prior to implantation.
On day 1, mice were brought into the GEM micro-procedure room Animals were anesthetised with gaseous anaesthetic at a flow rate of 1.5 L per minute of oxygen with 2.5% of isoflurane delivered via a Baines system using a calibrated tabletop anaesthetic machine, administered from a rodent nose cone. Depth of anaesthesia was monitored by toe pinch response and breathing. Eyes were protected using ocular lubricant. The back of the mouse was shaved, and the legs were taped down. The back of the mouse was then sterilized with 70% ethanol, followed by iodine. The mouse was then moved to the surgical table, so that the dissecting microscope could be utilised.
Under sterile conditions, a lateral incision was made below the scapula, and the skin was blunt dissected from the subcutaneous layer, making a hole large enough to fit the minipump. The minipump was inserted with the flow regulator angled towards the head. Incisions were closed with 2-4 dissolving discontinuous sutures. Isoflurane was then shut off, allowing the mouse to breathe pure oxygen, and a dose of buprenorphine was administered for pain relief After 1 hour, when the mice had recovered from anaesthesia, they were moved back to the animal holding room. The mice were monitored daily for the remainder of the experiment.
Blood was collected by cardiac puncture following CO2 euthanization.

[7] = test system: C57, apoE-KO and GrB/apoE-DKO mice; assay: Angiotensin-II infusion aortic dissection model (Example 7); assay type: in vivo, mouse
Method: Aortic dissections were induced with 28 day infusion of 2000 ng/kg/min angiotensin-II dissolved in saline, or placebo, through an ALZET™ osmotic pump (model 1004). The pumps were implanted into the subcutaneous space in the upper dorsal regions through a small incision site at the back of the neck of the anesthetized mouse, and the incision was closed with dissolving sutures. The mice were euthanized by carbon dioxide inhalation followed by cardiac puncture 28-days post implantation. The thoracic cavity and abdominal cavity were then opened, and the circulation perfused with PBS via a cannula placed in the left ventricle, with fluid drained from a severed right atria. Following PBS perfusion, fresh 10% formalin was perfused in the same manner. The heart, kidneys and entire aorta to the iliac bifurcation was then carefully dissected from the animal, and photographed en masse.
Aortic dissections were defined by blood accumulation between the media and outer aortic wall. Mice that were found dead without any preceding signs of suffering were defined as sudden death.

T1 sequence (P02751 32-2477): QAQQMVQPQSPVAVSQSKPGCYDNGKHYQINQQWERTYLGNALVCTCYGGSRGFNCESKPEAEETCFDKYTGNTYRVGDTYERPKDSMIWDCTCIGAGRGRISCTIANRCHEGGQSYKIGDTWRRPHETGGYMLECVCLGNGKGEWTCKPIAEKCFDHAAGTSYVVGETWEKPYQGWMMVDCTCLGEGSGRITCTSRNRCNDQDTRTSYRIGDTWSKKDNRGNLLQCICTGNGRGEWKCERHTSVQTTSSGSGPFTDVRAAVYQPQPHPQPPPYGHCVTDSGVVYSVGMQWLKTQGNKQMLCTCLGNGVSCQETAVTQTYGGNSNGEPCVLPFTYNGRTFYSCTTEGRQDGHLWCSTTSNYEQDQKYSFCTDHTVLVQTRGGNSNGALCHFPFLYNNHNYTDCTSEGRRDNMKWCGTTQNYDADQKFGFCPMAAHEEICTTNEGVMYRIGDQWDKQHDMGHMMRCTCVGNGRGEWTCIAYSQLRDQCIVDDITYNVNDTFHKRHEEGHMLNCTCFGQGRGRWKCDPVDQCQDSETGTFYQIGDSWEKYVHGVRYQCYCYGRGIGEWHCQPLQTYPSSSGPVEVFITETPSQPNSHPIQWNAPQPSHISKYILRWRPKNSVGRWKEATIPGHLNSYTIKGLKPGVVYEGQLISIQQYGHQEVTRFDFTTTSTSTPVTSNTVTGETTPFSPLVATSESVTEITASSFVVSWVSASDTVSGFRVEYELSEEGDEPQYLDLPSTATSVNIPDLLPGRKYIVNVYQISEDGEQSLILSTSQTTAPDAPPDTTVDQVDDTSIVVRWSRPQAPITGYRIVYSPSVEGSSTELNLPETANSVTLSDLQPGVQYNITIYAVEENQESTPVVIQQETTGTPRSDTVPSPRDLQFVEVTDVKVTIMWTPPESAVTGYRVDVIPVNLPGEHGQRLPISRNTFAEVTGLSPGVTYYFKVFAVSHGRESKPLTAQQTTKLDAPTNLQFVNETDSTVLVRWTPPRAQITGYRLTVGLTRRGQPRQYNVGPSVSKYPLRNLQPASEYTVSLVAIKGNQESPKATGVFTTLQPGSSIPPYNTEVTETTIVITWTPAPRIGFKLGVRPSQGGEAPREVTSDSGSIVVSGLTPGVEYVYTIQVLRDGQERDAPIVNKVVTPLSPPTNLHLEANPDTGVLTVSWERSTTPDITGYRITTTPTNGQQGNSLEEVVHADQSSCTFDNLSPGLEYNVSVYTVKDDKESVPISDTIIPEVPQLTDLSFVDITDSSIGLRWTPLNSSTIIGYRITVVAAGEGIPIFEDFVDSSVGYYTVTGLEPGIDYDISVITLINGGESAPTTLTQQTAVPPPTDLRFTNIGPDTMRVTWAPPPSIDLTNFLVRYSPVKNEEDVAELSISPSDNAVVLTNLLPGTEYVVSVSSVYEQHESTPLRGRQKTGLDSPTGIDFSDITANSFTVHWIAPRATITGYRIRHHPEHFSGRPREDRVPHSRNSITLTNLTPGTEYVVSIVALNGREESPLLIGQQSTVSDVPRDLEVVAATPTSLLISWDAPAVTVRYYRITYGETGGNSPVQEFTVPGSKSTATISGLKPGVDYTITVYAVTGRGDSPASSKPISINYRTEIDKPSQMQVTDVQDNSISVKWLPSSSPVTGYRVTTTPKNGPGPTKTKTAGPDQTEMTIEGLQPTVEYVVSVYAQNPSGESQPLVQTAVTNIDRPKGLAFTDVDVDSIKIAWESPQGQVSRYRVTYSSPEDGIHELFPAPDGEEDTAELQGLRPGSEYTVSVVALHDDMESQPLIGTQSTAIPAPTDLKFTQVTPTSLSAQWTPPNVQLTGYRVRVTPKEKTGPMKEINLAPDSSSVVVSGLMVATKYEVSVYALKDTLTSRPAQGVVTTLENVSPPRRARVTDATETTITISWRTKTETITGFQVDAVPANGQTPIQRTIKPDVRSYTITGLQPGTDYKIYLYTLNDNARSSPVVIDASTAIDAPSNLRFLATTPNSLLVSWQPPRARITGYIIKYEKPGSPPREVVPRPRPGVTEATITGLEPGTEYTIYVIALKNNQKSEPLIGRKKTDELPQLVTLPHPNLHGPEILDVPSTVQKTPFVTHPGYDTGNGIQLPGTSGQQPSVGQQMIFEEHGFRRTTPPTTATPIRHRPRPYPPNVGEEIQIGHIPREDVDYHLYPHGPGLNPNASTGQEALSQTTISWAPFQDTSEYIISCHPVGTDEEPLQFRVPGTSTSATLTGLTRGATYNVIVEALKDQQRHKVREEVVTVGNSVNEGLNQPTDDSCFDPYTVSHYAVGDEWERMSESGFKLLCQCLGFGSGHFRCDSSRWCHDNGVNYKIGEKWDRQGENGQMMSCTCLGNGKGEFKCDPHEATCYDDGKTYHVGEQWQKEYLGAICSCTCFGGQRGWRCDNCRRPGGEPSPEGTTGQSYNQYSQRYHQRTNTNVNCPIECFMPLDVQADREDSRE

Substance: granzyme B: serine protease; the patent's target enzyme, tested for binding and cleavage of extracellular matrix proteins
- radioactivity of the cleaved, soluble elastin fragments ([1]; aortic 3H-elastin 0.15 mg, granzyme B 0.75 μg added 5 times, room temperature, 7 days): 2.7 times higher than background
- cleavage of vitronectin (vitronectin): no cleavage
- cleavage of collagen IV (collagen IV): no cleavage
- radioactivity of the cleaved, soluble elastin fragments ([2]; skin 3H-elastin 0.15 mg, granzyme B 0.75 μg added 5 times, room temperature, 7 days): 4.8 times higher than background
- cleavage of extracellular proteins (Western blot for biotin) [3]: induced a cleavage of a number of extracellular proteins
- unbound granzyme B band in supernatant (Western blot) versus sample without elastin [4]: dramatically less pronounced
- fibronectin in SMC lysates (Western blot) (fibronectin): reduction in the total amount of fibronectin
- fibrillin-1 cleavage (Western blot) (fibrillin-1): cleaves fibrillin-1
- unbound granzyme B band in supernatant (Western blot) [5]: No band appeared

Substance: angII: angiotensin II from Sigma, infused by osmotic minipump to induce aneurysm and dissection in mice (DRVYIHPF; Angiotensin-2; UniProt P01019 25-32, looked up)
- medial thickness of thoracic and abdominal aortas versus saline ([6]; 28 days, significant only for apoE-KO thoracic samples (p<0.05)): trend for medial thickness to increase
- survival to 28 days ([6]; GrB/apoE-DKO mice (n=15)): 86.67%
- Weight change ([6]; GrB/apoE-DKO mice surviving to 28 days): -0.3 g
- n at 28 days ([6]; GrB/apoE-DKO mice, n at 0 days 15): 13
- mice with small abdominal aortic aneurysm (AAA) ([6]; GrB/apoE-DKO surviving mice, day 28): 30%
- survival to 28 days ([6]; apoE-KO mice (n=16)): 56.25% and 53%
- Weight change ([6]; apoE-KO mice surviving to 28 days): 1.0 g
- abdominal aortic lumen area versus saline ([6]; apoE-KO mice, 28 days, one-way ANOVA/Dunn's, p<0.05): statistically significant increase
- n at 28 days ([6]; apoE-KO mice, n at 0 days 16): 9
- gross pathological outcome ([6]; apoE-KO surviving mice, day 28): developed aortic dissections
- percent aortic root lumen covered by plaque ([6]; either genotype, angII versus saline, 28 days, p>0.05): No significant difference
- sudden death before the 28-day time point ([7]; apoE-KO mice, 2000 ng/kg/min infusion, four of eight): 50%
- mice that developed aortic dissections or succumbed to sudden death ([7]; apoE-KO mice, 2000 ng/kg/min, 28 day infusion, seven of eight): 87.5%
- aortic dissections ([7]; wildtype and GrB/apoE-DKO mice, 2000 ng/kg/min, 28 day infusion): none developed aortic dissections
- sudden death ([7]; wildtype mice, 2000 ng/kg/min, 28 day infusion): zero of six

Substance: elastase
- radioactivity increase over background ([1]; aortic elastin, 25 μg elastase, 2 hours, positive control): 7.7 fold
- radioactivity increase over background ([2]; skin elastin, 25 μg elastase, 2 hours, positive control): 14.9 fold
